21 variants from the RNAGym collection of RNA variant scans (doi:10.1073/pnas.2313332121) can be followed below.

Sequences and labels used below:
B1: TPR t1 (parent)
chain: GACCAAUCUGCCCUCAGAGCUCGAGAACAUCUUCGGAUGCAGAGGAGGCAGGCUUCGGUGGCGCGAUAGCGCCAACGUCCUCAACCUCCAAUGCAUCCCACCACAUGAUGAUGCCUGAAGAGCCUUGGUUUUUUG

This data set covers variants of B1. Nature of the data set: polymerase ribozyme fitness, log enrichment relative to wild type (log ratio); higher = more active; in vitro selection for triplet polymerase activity. The essentials:
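Input and output libraries were sequenced on Illumina after a single in vitro selection round, run in triplicate on PCR-built, transcribed mutant libraries of each subunit of a heterodimeric triplet polymerase ribozyme. Selection annealed libraries to a biotinylated primer, the partner subunit and triplets, incubated them frozen at −7 °C, then gel-excised extended constructs for streptavidin-bead capture and RT-PCR. Genotypes with ≥10 input reads and ≥1 read per output were kept. Fitness is the logarithm, taken in base 2, of genotype enrichment divided by wild-type enrichment, using inverse-variance-weighted replicate averages.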
Take GACCAAUCUGCCCUCAGAGCUCGAGAACAUCUUCGGAUGCAGAGGAGGCAGGCUUCGGUGUCGCGAUAGCGCCAACGUACUCAACCUCCAAUGCAUCCCACUACAUGAUGAUGCCUGAAGAGCCUUGGUUUUUUG [G61U C79A C102U]: the “polymerase ribozyme fitness (log ratio)” value was -3.26.

On to GACCAAUCUGCCCUCAGAGCUCGAGAACAUCUUCGGAUGCAGAGGAGGCAGGCUUCGGUGUCGCGAUAGCGCCAACGUCCUCAACCUCUAAGGCAUCCCACCACAUGAUGAUGCCUGAAGAGCCUUGGUUUUUUG [G61U C89U U92G], for which the “polymerase ribozyme fitness (log ratio)” value was -3.

On to GACCAAUCUGCCCUCAGAGCUCGAGAACAUCUUCGGAUGCAGAGGAGGCAGGCUUCGGUGUCGCGAUAGCGCCAACGUCAUCAACCUCCAAUGCAUCCCAACACAUGAUGAUGCCUGAAGAGCCUUGGUUUUUUG [G61U C80A C101A], for which the “polymerase ribozyme fitness (log ratio)” value is -4.47.

On to GACCAAUCUGCCCUCAGAGCUCGAGAACAUCUUCGGAUGCAGAGGAGGCAGGCUUCGGUGUCGCGAUAGCGCCAACGUCCUGAACCUCCAAUGCAUCCCCCCACAUGAUGAUUCCUGAAGAGCCUUGGUUUUUUG [G61U C82G A100C G113U], for which the “polymerase ribozyme fitness (log ratio)” value is -5.11.

In the case of GACCAAUCUGCCCUCAGAGCUCGAGAACAUCUUCGGAUGCAGAGGAGGCAGGCUUCGGUGUCGCGAUAGCGCCAACGUCCUCAACCUCCAAUGCAUCCCACAACAUGAUGAUGCCUGAAGAGCCUUGGUUUUUUG [G61U C102A], the “polymerase ribozyme fitness (log ratio)” value is -2.05.

Consider GACCAAUCUGCCCUCAGAGCUCGAGAACAUCUUCGGAUGCAGAGGAGGCAGGCUUCGGUGUCGCGAUAGCGCCAACGUCCUCAACCUCCAAUGCGUCCCACCACAUGAUGAUGCCUGAAGAGCUUUGGUUUUUUG [G61U A95G C124U], for which the “polymerase ribozyme fitness (log ratio)” value stood at 1.97.

As to GACCAAUCUGCCCUCAGAGCUCGAGAACAUCUUCGGAUGCAGAGGAGGCAGGCUUCGGUGUCGCGAUAGCGCCAACGUCCUCAACCUCGAUUGCAUCCCACCACAUGAUGAUGCCUGAAGAGCUUUGGUUUUUUG [G61U C89G A91U C124U], the “polymerase ribozyme fitness (log ratio)” value is -0.422.

On to GACCAAUCUGCCCUCAGAGCUCGAGAACAUCUUCGGAUGCAGAGGAGGCAGGCUUCGGUGUCGCGAUAGCGCCAACGUCCUCAACCUCCAAUGCAUCUCACCACAUGAUGAUGCCUGAAGAGCCUUGGCUUUUUG [G61U C98U U129C], for which the “polymerase ribozyme fitness (log ratio)” value was -0.95.

Turning to GACCAAUCUGCCCUCAGAGCUCGAGAACAUCUUCGGAUGCAGAGGAGGCAGGCUUCGGUGUCGCGAUAGCGCCAACGUCCUCAACCUCCAAUGCAUCCCACCACAUGAUGAUGCCUGAAGCGCCUUGGUUUUUUG [G61U A121C], the “polymerase ribozyme fitness (log ratio)” value came to 1.94.

With GACCAAUCUGCCCUCAGAGCUCGAGAACAUCUUCGGAUGCAGAGGAGGCAGGCUUCGGUGUCGCGAUAGCGCCAACGUCCUCAACCUCCAAUGCAUCCCACCACAUGAUGAUGCCUGAAGGGCCUUGGUUUUUUG [G61U A121G], the “polymerase ribozyme fitness (log ratio)” value worked out at 2.12.

Turning to GACCAAUCUGCCCUCAGAGCUCGAGAACAUCUUCGGAUGCAGAGGAGGCAGGCUUCGGUGUCGCGAUAGCGCCAACGUCCUCAACCUCCAAUGCAUCCCAUCACAUGAUGAUGCCUGAGGAGCGUUGGUUUUUUG [G61U C101U A119G C124G], the “polymerase ribozyme fitness (log ratio)” value came out at 1.72.

Take GACCAAUCUGCCCUCAGAGCUCGAGAACAUCUUCGGAUGCAGAGGAGGCAGGCUUCGGUGUCGCGAUAGCGCCAACGUCCUCAACCUCCAAUGCAUGCCACCACAUGAUGAUGCCUGAAGAGCCUUGGUUUUUUG [G61U C97G]: the “polymerase ribozyme fitness (log ratio)” value was -4.15.

Turning to GACCAAUCUGCCCUCAGAGCUCGAGAACAUCUUCGGAUGCAGAGGAGGCAGGCUUCGGUGUAGCGAUAGCGCCAACGUCCUCAACCUCCAAUGCAUCCCACCACAUGAUGAAGCCUGAAGAGCCUUGAUUUUAUG [G61U C62A U112A G128A U133A], the “polymerase ribozyme fitness (log ratio)” value was -5.42.

For the variant GACCAAUCUGCCCUCAGAGCUCGAGAACAUCUUCGGAUGCAGAGGAGGCAGGCUUCGGUGUUGCGAUAGCGCCAACGUCCUCAACCUCCAAUGCAUCCCACCACAUGAUGAUGCCUGAAGAGCCUUGGUUUUUUG [G61U C62U], the “polymerase ribozyme fitness (log ratio)” value is -3.5.

In the case of GACCAAUCUGCCCUCAGAGCUCGAGAACAUCUUCGGAUGCAGAGGAGGCAGGCUUCGGUGUCGCGAUAGCGCCAACGUCCUCCACCUCCAAUGCAUCCCACCAAAUGAUGAUGCUUGAAGAGCCUUGGUUUUUUG [G61U A83C C104A C115U], the “polymerase ribozyme fitness (log ratio)” value is -4.01.

Regarding GACCAAUCUGCCCUCAGAGCUCGAGAACAUCUUCGGAUGCAGAGGAGGCAGGCUUCGGUGUCGCGAUAGCGCCAACGUCCUCAACCUCCAAUGCAUCCCACCACAUGAUGUUGCCUGAAGAGCCUUGGUUUUUUG [G61U A111U], the “polymerase ribozyme fitness (log ratio)” value is -1.75.

As to GACCAAUCUGCCCUCAGAGCUCGAGAACAUCUUCGGAUGCAGAGGAGGCAGGCUUCGGUGUCGCGAUAGCGCCAACGUCCUCAAGCUCCAAUGCAUCCCACCACAUGAUGAUGCCUGAAGAGCCUUGGUUUUUUG [G61U C85G], the “polymerase ribozyme fitness (log ratio)” value is -2.33.

Regarding GACCAAUCUGCCCUCAGAGCUCGAGAACAUCUUCGGAUGCAGAGGAGGCAGGCUUCGGUGUCGCGAUAGCGCCAACGUCCUUAACCUCCAAUGCAUCCCACCACAUGAUGAUGCCUGAAGAGCCUUGGUUUUUUG [G61U C82U], the “polymerase ribozyme fitness (log ratio)” value is -0.605.

In the case of GACCAAUCUGCCCUCAGAGCUCGAGAACAUCUUCGGAUGCAGAGGAGGCAGGCUUCGGUGUCGCGAUAGCGCCAACGUCCUCAACUUCCAAUGCAUCCCACCACAUGAUGAUGCCUGAAGAGCCUUGGUUUUUUU [G61U C86U G135U], the “polymerase ribozyme fitness (log ratio)” value was -1.31.

As for GACCAAUCUGCCCUCAGAGCUCGAGAACAUCUUCGGAUGCAGAGGAGGCAGGCUUCGGUGUCGCGAUAGCGCCAACGUCCUCAAGCUCCAAUGCAUUCCACCACAUGAUGAUGCCUGAAGAGCCUUGGUUUUUUG [G61U C85G C97U], the “polymerase ribozyme fitness (log ratio)” value is -3.66.

As to GACCAAUCUGCCCUCAGAGCUCGAGAACAUCUUCGGAUGCAGAGGAGGCAGGCUUCGGUGUCGCGAUAGCGCCAACGUCCUCAACCUCCAAUGCAUCCCACCACAUGAUGAUGCAUGAAGAGCCUUGGUUUUUUG [G61U C115A], the “polymerase ribozyme fitness (log ratio)” value came out at 0.264.
